pKi: −log10 of the molar value.
What was measured:
[1] = target: T1, (His)6-NLRP1 (NLR family, pyrin domain-containing 1), purified recombinant full-length protein from Sf21 cells (human) (UniProt Q9C000); assay: cell-based or functional assay
T1 sequence: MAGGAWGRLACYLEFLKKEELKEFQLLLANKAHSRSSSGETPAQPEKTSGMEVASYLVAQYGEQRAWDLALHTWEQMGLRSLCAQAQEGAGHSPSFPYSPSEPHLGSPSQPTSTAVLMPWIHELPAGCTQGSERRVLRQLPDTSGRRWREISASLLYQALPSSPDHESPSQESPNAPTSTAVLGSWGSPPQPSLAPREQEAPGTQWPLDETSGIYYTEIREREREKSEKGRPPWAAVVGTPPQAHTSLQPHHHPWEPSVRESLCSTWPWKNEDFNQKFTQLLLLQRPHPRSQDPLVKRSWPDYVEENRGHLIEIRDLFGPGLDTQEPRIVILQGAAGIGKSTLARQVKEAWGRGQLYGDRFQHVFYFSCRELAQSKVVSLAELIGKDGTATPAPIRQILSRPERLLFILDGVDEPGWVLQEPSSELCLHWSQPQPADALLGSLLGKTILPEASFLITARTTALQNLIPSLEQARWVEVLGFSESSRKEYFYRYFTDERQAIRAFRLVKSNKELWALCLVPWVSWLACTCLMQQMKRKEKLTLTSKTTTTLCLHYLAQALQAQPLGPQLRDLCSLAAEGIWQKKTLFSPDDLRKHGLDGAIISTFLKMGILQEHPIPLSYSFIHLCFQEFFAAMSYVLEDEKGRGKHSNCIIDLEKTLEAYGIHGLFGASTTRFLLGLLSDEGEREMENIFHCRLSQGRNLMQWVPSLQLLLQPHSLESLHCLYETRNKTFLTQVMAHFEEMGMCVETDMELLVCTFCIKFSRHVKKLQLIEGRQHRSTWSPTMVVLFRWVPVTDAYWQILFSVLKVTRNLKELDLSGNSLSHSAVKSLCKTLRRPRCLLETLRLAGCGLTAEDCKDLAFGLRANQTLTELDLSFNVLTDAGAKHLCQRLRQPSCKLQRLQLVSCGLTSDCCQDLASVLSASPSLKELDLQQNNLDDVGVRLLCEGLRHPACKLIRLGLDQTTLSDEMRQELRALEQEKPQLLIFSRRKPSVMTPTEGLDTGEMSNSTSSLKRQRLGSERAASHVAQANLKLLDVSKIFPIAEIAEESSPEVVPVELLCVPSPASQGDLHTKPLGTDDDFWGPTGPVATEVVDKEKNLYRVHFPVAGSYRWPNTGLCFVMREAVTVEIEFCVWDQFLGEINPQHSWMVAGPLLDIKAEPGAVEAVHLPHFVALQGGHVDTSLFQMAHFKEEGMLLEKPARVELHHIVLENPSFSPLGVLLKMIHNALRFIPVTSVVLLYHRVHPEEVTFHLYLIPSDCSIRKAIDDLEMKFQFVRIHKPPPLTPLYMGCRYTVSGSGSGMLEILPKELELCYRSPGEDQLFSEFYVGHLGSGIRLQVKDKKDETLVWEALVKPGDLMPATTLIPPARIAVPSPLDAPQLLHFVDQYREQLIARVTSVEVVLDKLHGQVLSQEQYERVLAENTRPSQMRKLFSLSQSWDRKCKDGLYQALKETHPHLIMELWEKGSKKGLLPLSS

[2] = target: T1, (His)6-NLRP1 (NLR family, pyrin domain-containing 1), purified recombinant full-length protein from Sf21 cells (human); assay: enzyme kinetics of the reconstituted NLRP1 inflammasome (Caspase-1 activity on Ac-WEHD-AMC); Ki from the competitive inhibition equation

Substance | IC50 (concentration to inhibit NLRP1-induced Caspase-1 activity by 50%) [1] [nM] | pKi [2] | FITC-ATP binding to NLRP1 (FPA), reduction [1] [%]
Bcl-2 Loop peptide 35-83 (synthetic) | 11.4 | – | –
GST-Bcl-2 (Bcl-2 lacking its C-terminal transmembrane domain, ~last 20 amino acids) (from UniProt P08515 1-218; P10415 1-218) | – | 8.08 | 60

Source: US20100093623A1, “COMPOSITIONS AND METHODS FOR […]-LIKE RECEPTOR ACTIVITY AND USES THEREOF” (Burnham Institute for Medical Research, priority 2008, published 2010)
